This note sets out measurements from a protein production outcome set (Wang et al. 2014).
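Also: failed if final PepcDB status was selected cloned or expressed and not failed if soluble or beyond.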

The nature of the series: label from the status in PepcDB records.
Take “MGGRVTDVYNAFVPLVHISNNSTSDTNKAKENIISKLLDILSGIFVPIIHAIIGAGLLKGILIFLNFYHLVSPATSTYKLLSVFSDSAFYFMPILLAYSSAKKFKTNKYVAVAIAGILVHPELISMMSKSASVKFFGIPFTSATYSTSVLPIILGVWVMSYIERGLNKIIPKILRTVLVPLFTLLITAPIILGILGPIGTIVGDAIGQGTVQLYLHYGVIAGILVGAAYPFLVIMGMHVGFTPVMVQSLSKYGVDYMMGIFVASNSAEAGATTAVWLKTKNKQLKEIAGSSALNAIIGVTEPALFGVTSKLKKPLIAVSIGGAVGGGIAGLFKVAAQGAGTGPIAGIPLFFGKTFIWFIISCLVSYVVSFILAYVIGFEDIPNPEDLSQKNSMDNHEKIVTTVVANQSVADPVNGNVIPLSEVKDNVFSSKMMGDGAAIVPNDNKIYAPFDGVVELVFETKHAIGLKSYDGCELLIHVGLDTVELKGKHFISHVIKDQKVKKGDLLLEFDREAISKEGYDTTIPVIVTNSKDFENITKTKKKQLQHGEELLKLTAKNKEN”: the protein production result was “failed”.
“MLASLEARYPGLAFAWPRPGVLEITFRGEKLXAMPPALHRGLARVWRDLEAVEGVRAVLLRGEGGVFSAGGSFGLIEEMRASHEALLRVFWEARDLVLGPLXFPRPVVAAVEKVAVGAGLALALAADIAVVGKGTRLLDGHLRLGVAAGDHAVLLWPLLVGMAKAKYHLLLXEPLTGEEAERLGLVALAVEDEKVYEKALEVAERLAQGPKEALHHTKHALXHWYRSFLPHFELSLALEFLGFSGKELEEGLKALKEKRPPEFP”: the protein production result is recorded as “not failed”.
In the case of “MLILLPDFIGHPSCFRGLLARLGATDCRLVDYHRLDAYASIEALASQVLDGLAEEPDWLIGYSFGGLVGYEMARQLPASRLLMIDSHLPWPALRRMPPSEQYQRWLSAEMREWIALMSELGELREEVLLRNVELFGRWQPRHRLARASWVRCRDDAGRDPAAERWCDLIERLDTFPCERPHHLALQDPAVIDFIVHTVSK”, the protein production entry was “failed”.
Consider “MKQLPKTRTALLLAFLVIMWGVNWPLSKAALAYSPPLLFAGIRTLIGGLLLVIVALPRIHKLRLKETWPIYLVSALLNITLFYGLQTIGLNYLPAGLFSAIVFFQPVLMGVFSWLWLGESMFVMKVIGLILGFAGVAVISAAGFGGHISVIGVLLALGSAVSWALGTVYMKKTGSRVDSIWMVALQLTIGSVFLLISGFWTESFSAIQWTAPFITSLLFISVFVIALGWLVFFTLVGSGEASKVASYTFLIPLISIVASSIFLHEPLTLSLLAGLLLIVTSICLVNTKSKAQKAAAIGINEKAAQ”, for which the protein production result is listed as “failed”.
With “MLAVFTKSVAGVKLFGMMYPVLERSENLPTDDSIDAIKEIAKALQSVLFKLHINGYSSLLHPLGVNNVDFILKFYVVKDGENDSLRVINVYHKLCGEAEDSWLEIVNNFRGEFSFISMMQRIEASLLLINAVKCYVVSDTLGNLFFRNDYNFGTGGSVCYVHIFGGHYLASGKGLRKLQLPLMETKMEPLIPDDIV”, the protein production entry is “failed”.
On to “KLFPRLFGLYRHVADLYQKMKALHPIMNDTLNRQAERWGLGKIYLSEEEFCQSEEKEKIRMLQSDFYDRMWYRLDFRGKLGSAKSFQCYYFFFRHS”, for which the protein production entry is recorded as “failed”.
With “RSLQLDKLVNEMTQHYENSVPEDLTVHVGDIVAAPLPTNGSWYRARVLGTLENGNLDLYFVDFGDNGDCPLKDLRALRSDFLSLPFQAIECSLARIA”, the protein production entry is listed as “not failed”.
For the sequence “MTQTTVPVIFDLDGTLVDPAGGITGGISAALREMDLPVPEQAVLNSMVGPKLSDSLLHLADVPGELVDETIERYRRHYKETGIGQSKLYPGVFDLLEYFAETGRPVAVATQKPQSIARLVLEHHKIADFFVSIRGAADDESLKANTASGKVEIVGAALKDLHSQPAVMVGDRHQDVAGALANGLDCIGVSWGFAPDGELEEAGAVAVVSTALELRSKIEELDAVRAAALSEVQNDGSL”, the protein production result is recorded as “failed”.
The entry for “MEIIHLSEIDSTNDYAKELAKEGKRNFIVLADKQNNGKGRWGRVWYSDEGGLYFSMVLDSKLYNPKVINLLVPICIIEVLKNYVDKELGLKFPNDIMVKVNDNYKKLGGILTELTDDYMIIGIGINVNNQIRNEIREIAISLKEITGKELDKVEILSNFLKTFESYLEKLKNKEIDDYEILKKYKKYSITIGKQVKILLSNNEIITGKVYDIDFDGIVLGTEKGIERIPSGICIHVR” is “not failed”; for “LEEHEQFNHKIVASAPVGISILRIRDGMIILSNELAHNYFRLLSHSDKQNILSIIAEKSSNIVDVVTNNHNHLQISFVNSRYQNEDVAICVLVDISARVKMERSLQNMATAAEQANQAKSMFLATVSHELRTPLYGIIGNL” it is “failed”.
As to “SIQKDLANIAEVEVSIPAKLHNSLIGTKGRLIRSIMEECGGVHIHFPVEGSGSDTVVIRGPSSDVEKAKKQLLHLAEEKQTK”, the protein production result is listed as “not failed”.
For the sequence “MMMMRAFIAENVRGIYAFDEDGKLVGKRYFTDKPEKILDGLLKGELVKDLEEFLNELREKGYDEFIFEHPELSRKAKELGFNATTEFPNLAGERLRSNPEEFLGENWFDDYYNVGVALTRMRIQEQSGARDKMVIQAIEALDDVDKVINLLVSRLREWYSLHFPELDEILPRHPQYVAFVKAIGHRDNVDEEKLRELGLSDEKIKKIIEAKEKTMGAWMDETDIAIVQHFAEEIDRLYKLRKELEDYIDKAMDDVAPNLKALVGAKLGARLISLAGGLKELAMLPSSTIQVLGAEKALFRHLRTGAKPPKHGVIYQYPAINRSPWWQRGKIARALAGKLAIAARVDYFSGEYIAEELKKELEARIKEIKEKYPRPPKRRKEERKGRKPWKEKKKKKKKKKGGRRLEHHHHHH”, the protein production result was “failed”.
“MKELTVPDTTPLLPIVDPFEQQDSEGPDSTKVYPFYRNLAEGKLTMQRCKSCGRIFYPPQAMCKHCNSTDYEWVEVPKRGKIHAFSALLLGFPMVIEEFAPFVIAVARFGDYPENGVQIVGAMFDVDYSELSIGDEVEWEILKIKGPGDKVRYWYHFRKVLEHHHHHH”: the protein production result was “failed”.
As for “METRARYVLIGIFTLASILATLGFLLWLAKVQLDRTYAEYDILFTSVEGLGRASPVRYNGVDVGEVLNIAVDAEDPSLVRVRIQLAATTPVRTDTKAQVASQGVTGVSYVSLSGGAAPEPLTAEGDQWPPVIPSERSAVQALTADAPTLLAEAIALLKDIQTFTGPENRAAVESILTNADASVQNIAAITRDAAEATSRLNDFTARLDAMADRADVALASLETALEEGKGAAASARDTFEAVNRVVDRDVPPMIAQIRSAVSGIERSVAGIRNFADNGLPQYATLAAETRRTVTNLNSLIAQISRDPARFFLGSQTPSYRR”, the protein production entry is on record as “failed”.
The entry for “MKQGKISDYVNPVPIKITDDKAIFKVEKLVPTPYIERVLPLEYAPLYEQLAELDTAIPKIVCLEKSDRLTVIEEYIDSPRLDQYLETHKLTSAQIHDLICQLLDVLAVLHQQIPPIIHRDIKPENIFYDGQKLILADFDIARNMQEDADRDTRILGSVGYAAPEQFGFSQSGPASDFYAVGVLMNVLYTGYLPSVRLYKGPEREIIEKATHINSQKRYQSAQEFKDAITGLGRSSWLLPGFRSHQPARMLTAGCGYLLMLFSSFSMDAKSDSAADSFLLRLSFFMVLFLIVLFACNYRNIKSICLFHSSKSKFTRACGIIISYLLVATVLTTALAALSVAISSFGH” is “failed”; for “MTVDPASHITIPEADLARLRHCNHHDPHGFYGWHETEAGSVIRTRQVGATQVNLLIDDTSHVMTPIGDDIFAIDLGHRERADYRLEVTWPDQEPQVKADPYYFLPTVG” it is “not failed”; for “MGTVHARSLDPLPMNGPDFGSPDDADLVEVEPQKKQEILENKDVVVQRVHFEGLGRTKDDLVAHEIGQVFKAKNLIEVMRKSHEAREKLLRLGVFRNVEVLIDTCEGEDAVPNGLDVTFEVTELRRVTGSYNTMVGNNEGSMVLGLKLPNLFGRAEKMTFQFSYGTKETSYGLSFFKPQVGNFERNFSVNLYKVTGQFPWSSLRETDRGVSAEINFPIWKTSHTLKWEGVWRELGCLARTASFTIREESGHTLKSSLSHSMVIDSRNASILPKSGALLKINQELAGYTGGDVSFLKEDFELQLNRQLTWDSVLSTSLWGGMLVPIGDRPSSIADRFYLGGPTSVRGFSMYSIGPQSEGDYLGGEAYWAGGVHLYTPLPFRPGRGGFGDLFRTHFFLNAGNLCNLNYGEGPGAHLRRLAECIRWSYGAGLVLRLGNIARLELNYCIPMGVQSGDRICDGVQFGAGIRFL” it is “failed”.
The entry for “MNRKMFGELISEAIAMFIIIALGESAAAMYILYDPSPYQNAYWGLCICWGLAVTIAIYVTASVSGTHANPAVTLALALYRGFPWKKVLPYWAAQVIGAFIGAMIVYQLYSPVIDYYNHIHQLTRDAGGAAGVFFTSTGMAITPIHALGDEIILTAFLVFGIFAITERFNEAAPTANSGALVIGLLVATIGACMGYLEGWAINPARDLGPRLFAFLAGWGESAFPGKDHYWWIPIIGPLIGGVMGATAFQCLIYPFLPARVQAKQQAAILLHRKHP” is “failed”.
In the case of “MEHWNKTFCLEVKGDYACFTRPEMKVERVSYDVITPSAARGIFEAIFWKPAIRWRIRKIEVLNPIKWISVRRNEVGQTASERSDGIFIETARQQRAGLFLRDVAYRLHAELEFVPPSERPDAKRPVPESLQDGRETSELRKDENPGKYYAIFERRARKGQCFNQPYLGCREFSCEFRLVDDLANEPPPISETRNLGFMLYDLDFQKNLKEPPPAFFPACLEKGVIKVPDWESEEVRK”, the protein production entry is on record as “failed”.
Turning to “MMRVLHISDTHFGTEREPVVHALHALADTLRPDLVVLGGDITQRARRGQFAAARRFIQALQRPVLAVPGNHDIPLFNLAARLFDPYGNYRRALGAVLEPVYEDDRLLAIGVNSTRAARRKNGEVSRTQAQRVAQRLRDARPGQLRVVALHHPVHAMVESDQRNLLIGREFAVPAWVDAGVDLILGGHIHLPYVAPLHGKAGEAGRRAWTVQAGTAVSRRVRGRVPNSVNLIDYAAQADSPACTVQRWDFQTDSGAFVLFGQQVLALNRARG”, the protein production result is recorded as “failed”.
The entry for “MTRLTRFAVAPLHSMTRRLADVASARVAPDLVVTGARVLSTYSERIHANREVWITGGRVAAVKPAGTARKAWSGVALYDAAGAIIAPGLVDPHIHIESSMVTACAYAEAALLNGTTTIFCDSHEIGNVMDVAGVEAMLEDARQAPLSIFLTVPSTVPATSAELETAGGDLTPDKIAGLFDRWPEAVALGEKMDFVPVTMGDERSHAILAAALKRGRPVSGHVYGREFVAAYAASGVTDTHEAIDRDIADDLLDAGVWVFLRGGPPTTPWHSLPQAIRTITELGASHKRTAVCTDDRDADDLLLFGLDWVVREAVKAGMSPEQAWSMGSLHGATRFGMEGDIGGLGGGRRADLVLMDDQLKPQCTWYGGELVVEHGKITPRLDQALSQRYQYPKAAYATVKLPEKVKLTPELPAKACTVNAIKTALPGITLIHEKVAIEPAKDWPTLFARYGLCFVTVVERHGKSAGNVAYGLLKDFGLKRGAVASSVGHDSHNIIVAGTNEPDMQVAIAAIKEHQGAVCVVADGKVRALVPLPIAGLLSDKRVTEVAEEVKVLKKEWAEAGCTIPYMGFNLIPLSVIPEIRITDKGLVLVPQMELAPLFE” is “failed”; for “MKPTLLVLAAGMGSRYGGVKQIAAVGRHDETLLDYAVYDAMNNGFGKVVFIIREDIENDFRERFFNRIARNCNADYVFQSMDGFLTDEQIKRAVNRKKPWGTAHAILSAELKINEPFAVINADDYYGRSAYKTIATHLSTLSNDSTEHAMVGYILDKTLSRSGSVSRGVCQVGNGYLIGITEHKDIAYKKEGSVEKIVSEHEGKTVEFSGKETVSMNLFGFSPKIFDFMNEYFKDFIHKYAESEKAECLLPEGVGAMMKKGLGKVKVYTTTERWFGMTYPEDREIVKKELENKVKEGYYPEFLWR” it is “failed”.
